Patent US20180030111A1
Where two headings read alike, the source gives them in different places.

Assays:
[1] = target: FcgRIIIa receptor (CD16a) (human) (UniProt P08637); experiment: cell-based or functional assay
[2] = target: FcgRIIIa receptor (CD16a) on human NK cells (human) (UniProt P08637); experiment: cell-based or functional assay
[3] = target: C1q complement (rabbit serum as complement source) (rabbit); experiment: cell-based or functional assay
[4] = target: FcgRIIIa receptor (CD16a) on human NK cells (human) (UniProt P08637); experiment: cell-based or functional assay; remark: listed apart in the source
[5] = target: C1q complement (rabbit serum as complement source) (rabbit); experiment: cell-based or functional assay; remark: listed apart in the source
[6] = target: C1q complement (rabbit serum as complement source) (rabbit); experiment: cell-based or functional assay; remark: listed apart in the source
[7] = target: CD32aH (FcgRIIa receptor, H at position 131) (human) (UniProt P12318); experiment: ELISA, purified IgG on coated receptor, ratio against wild-type
[8] = target: CD32aR (FcgRIIa receptor, R at position 131) (human) (UniProt P12318); experiment: as above
[9] = target: CD32b (FcgRIIb receptor) (human) (UniProt P31994); experiment: as above
CD64 = CD64 (UniProt P12314); experiment: as above
CD64, sequence (P12314 16-288 limits assumed): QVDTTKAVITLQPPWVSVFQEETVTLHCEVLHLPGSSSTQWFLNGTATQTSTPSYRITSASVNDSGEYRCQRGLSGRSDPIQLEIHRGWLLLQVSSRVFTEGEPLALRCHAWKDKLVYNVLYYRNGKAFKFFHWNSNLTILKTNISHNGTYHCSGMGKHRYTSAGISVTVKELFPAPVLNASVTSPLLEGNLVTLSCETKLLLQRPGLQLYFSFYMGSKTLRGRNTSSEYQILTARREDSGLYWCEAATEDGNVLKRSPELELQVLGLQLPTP

CD32b (FcgRIIb receptor) (human), sequence (P31994 46-217): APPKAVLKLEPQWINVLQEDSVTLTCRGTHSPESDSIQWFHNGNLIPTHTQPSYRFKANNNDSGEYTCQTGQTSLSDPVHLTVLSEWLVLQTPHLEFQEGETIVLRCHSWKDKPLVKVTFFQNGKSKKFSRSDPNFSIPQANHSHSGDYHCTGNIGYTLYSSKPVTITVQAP
FcgRIIIa receptor (CD16a) on human NK cells (human), sequence (P08637 17-254): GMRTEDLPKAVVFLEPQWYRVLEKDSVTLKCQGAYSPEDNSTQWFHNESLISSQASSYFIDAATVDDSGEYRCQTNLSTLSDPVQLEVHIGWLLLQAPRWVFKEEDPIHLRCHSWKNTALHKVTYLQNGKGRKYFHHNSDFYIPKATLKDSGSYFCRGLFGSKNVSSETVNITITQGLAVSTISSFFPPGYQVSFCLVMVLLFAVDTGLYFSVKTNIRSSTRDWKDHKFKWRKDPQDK
CD32aH (FcgRIIa receptor, H at position 131) (human), sequence (P12318 34-217): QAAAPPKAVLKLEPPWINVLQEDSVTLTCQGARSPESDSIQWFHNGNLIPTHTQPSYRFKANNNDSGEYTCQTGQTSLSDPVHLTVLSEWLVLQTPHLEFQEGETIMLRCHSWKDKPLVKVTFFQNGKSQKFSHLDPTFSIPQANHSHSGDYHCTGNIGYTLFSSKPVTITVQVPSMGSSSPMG
FcgRIIIa receptor (CD16a) (human), sequence (P08637 17-254): as the sequence (P08637 17-254) above

Substance | ADCC EC50: Antibody concentration (ng/ml) giving 50% lysis of an internal control [1] | ADCC, Ratio [WT]/[antibody] [1] | ADCC, EC50: Antibody concentration (ng/ml) giving 50% maximum lysis of an internal control [2] | CDC, Antibody concentration (ng/ml) giving 50% lysis of an internal control [3] | CDC, Ratio [WT]/[antibody] [3] | ADCC, EC45: Antibody concentration (ng/ml) giving 45% maximum lysis of an internal control [4] | ADCC, EC50: Antibody concentration (ng/ml) giving 50% maximum lysis of an internal control [4] | ADCC, Ratio [WT]/[antibody] [4] | CDC, Antibody concentration (ng/ml) giving 50% lysis of an internal control [5] | CDC, Antibody concentration (ng/ml) giving 50% lysis of an internal control [6] | ADCC, Ratio [WT]/[antibody] [2] | CDC [3] | ADCC [4] | ELISA ratio (purified antibodies) [7] | ELISA ratio (purified antibodies) [8] | ELISA ratio (purified antibodies) [9] | ELISA ratio (purified antibodies) (CD64) | CDC, Ratio [WT]/[antibody] [5] | CDC, Ratio [WT]/[antibody] [6]
IgG-WT (antibody) | 12.3 ng/mL | 1 | – | – | – | – | – | – | – | – | – | – | – | – | – | – | – | – | –
anti-CD20 IgG1 with wild-type Fc (IgG-WT) (antibody) | – | – | 0.45 ng/mL | 262 ng/mL | 1 | 1.6 ng/mL | 10.5 ng/mL | 1 | 237 ng/mL | 133 ng/mL | – | – | – | – | – | – | – | – | –
anti-CD20 IgG variant J3B-115 (T359A, S383R, V397M) (antibody) | – | – | 0.57 ng/mL | 145 ng/mL | – | – | – | – | – | – | – | 3.2 | – | – | – | – | – | – | –
anti-CD20 IgG variant K3B-01 (N315D, N361H, P396L) (antibody) | – | – | – | – | – | – | 0.69 ng/mL | 15.2 | 59.6 ng/mL | – | – | 4 | 15.2 | 5.7 | 1 | 1 | 2.3 | 3.97 | –
anti-CD20 IgG variant N3A-87 (K290E, K320E, T350A, P396L) (antibody) | – | – | – | – | – | 1 ng/mL | – | 1 | – | 106 ng/mL | – | 1.3 | 1 | 3.92 | 3.7 | 9 | 1.5 | – | 1.25
anti-CD20 IgG variant O3A-05 (K290E, T366A, A378V) (antibody) | – | – | – | – | – | 0.2 ng/mL | – | 8 | – | 91 ng/mL | – | 1.5 | 8 | 4.02 | 3.3 | 4.5 | 1.2 | – | 1.46
anti-CD20 IgG variant Q3A-39 (N286I, P396L, N421T) (antibody) | – | – | – | – | – | 0.3 ng/mL | – | 5.33 | – | 61 ng/mL | – | 2.2 | 5.3 | 4.83 | 2.3 | 3.8 | 1.5 | – | 2.18

Now from value to substance:

ADCC EC50: Antibody concentration (ng/ml) giving 50% lysis of an internal control [1] | ADCC, Ratio [WT]/[antibody] [1] | ADCC, EC50: Antibody concentration (ng/ml) giving 50% maximum lysis of an internal control [2] | CDC, Antibody concentration (ng/ml) giving 50% lysis of an internal control [3] | CDC, Ratio [WT]/[antibody] [3] | ADCC, EC45: Antibody concentration (ng/ml) giving 45% maximum lysis of an internal control [4] | ADCC, EC50: Antibody concentration (ng/ml) giving 50% maximum lysis of an internal control [4] | ADCC, Ratio [WT]/[antibody] [4] | CDC, Antibody concentration (ng/ml) giving 50% lysis of an internal control [5] | CDC, Antibody concentration (ng/ml) giving 50% lysis of an internal control [6] | ADCC, Ratio [WT]/[antibody] [2] | CDC [3] | ADCC [4] | ELISA ratio (purified antibodies) [7] | ELISA ratio (purified antibodies) [8] | ELISA ratio (purified antibodies) [9] | ELISA ratio (purified antibodies) (CD64) | CDC, Ratio [WT]/[antibody] [5] | CDC, Ratio [WT]/[antibody] [6] | Substance
– | – | 1.84 ng/mL | 108 ng/mL | 2.42 | – | – | – | – | – | 0.24 | – | – | – | – | – | – | – | – | anti-CD20 IgG variant A3A-31 (K334R, L410R) (antibody)
– | – | 1.37 ng/mL | – | – | – | – | – | – | – | – | – | – | – | – | – | – | – | – | anti-CD20 IgG variant A3A-105 (G316D, K326E) (antibody)
– | – | 1.38 ng/mL | 16 ng/mL | 16.4 | – | – | – | – | – | 0.33 | 29.5 | 0.3 | 0.95 | 1.3 | 1.3 | 1.2 | – | – | anti-CD20 IgG variant A3A-173 (K248E, K334R, A378V) (antibody)
– | – | 0.75 ng/mL | 23.1 ng/mL | 11.3 | – | – | – | – | – | 0.6 | 20.4 | 0.6 | 1.2 | 1.2 | 1.1 | 1.5 | – | – | anti-CD20 IgG variant K3B-90 (V308A, K334R, A378V, K447N) (antibody)
